Laboratory results from patent US6995018.

Target: human complement Factor H (human) (UniProt P08603)
Test: steady state fluorescence, titration of purified human Factor H with rOPN

human complement Factor H (human), sequence (P08603 19-1231 limits assumed): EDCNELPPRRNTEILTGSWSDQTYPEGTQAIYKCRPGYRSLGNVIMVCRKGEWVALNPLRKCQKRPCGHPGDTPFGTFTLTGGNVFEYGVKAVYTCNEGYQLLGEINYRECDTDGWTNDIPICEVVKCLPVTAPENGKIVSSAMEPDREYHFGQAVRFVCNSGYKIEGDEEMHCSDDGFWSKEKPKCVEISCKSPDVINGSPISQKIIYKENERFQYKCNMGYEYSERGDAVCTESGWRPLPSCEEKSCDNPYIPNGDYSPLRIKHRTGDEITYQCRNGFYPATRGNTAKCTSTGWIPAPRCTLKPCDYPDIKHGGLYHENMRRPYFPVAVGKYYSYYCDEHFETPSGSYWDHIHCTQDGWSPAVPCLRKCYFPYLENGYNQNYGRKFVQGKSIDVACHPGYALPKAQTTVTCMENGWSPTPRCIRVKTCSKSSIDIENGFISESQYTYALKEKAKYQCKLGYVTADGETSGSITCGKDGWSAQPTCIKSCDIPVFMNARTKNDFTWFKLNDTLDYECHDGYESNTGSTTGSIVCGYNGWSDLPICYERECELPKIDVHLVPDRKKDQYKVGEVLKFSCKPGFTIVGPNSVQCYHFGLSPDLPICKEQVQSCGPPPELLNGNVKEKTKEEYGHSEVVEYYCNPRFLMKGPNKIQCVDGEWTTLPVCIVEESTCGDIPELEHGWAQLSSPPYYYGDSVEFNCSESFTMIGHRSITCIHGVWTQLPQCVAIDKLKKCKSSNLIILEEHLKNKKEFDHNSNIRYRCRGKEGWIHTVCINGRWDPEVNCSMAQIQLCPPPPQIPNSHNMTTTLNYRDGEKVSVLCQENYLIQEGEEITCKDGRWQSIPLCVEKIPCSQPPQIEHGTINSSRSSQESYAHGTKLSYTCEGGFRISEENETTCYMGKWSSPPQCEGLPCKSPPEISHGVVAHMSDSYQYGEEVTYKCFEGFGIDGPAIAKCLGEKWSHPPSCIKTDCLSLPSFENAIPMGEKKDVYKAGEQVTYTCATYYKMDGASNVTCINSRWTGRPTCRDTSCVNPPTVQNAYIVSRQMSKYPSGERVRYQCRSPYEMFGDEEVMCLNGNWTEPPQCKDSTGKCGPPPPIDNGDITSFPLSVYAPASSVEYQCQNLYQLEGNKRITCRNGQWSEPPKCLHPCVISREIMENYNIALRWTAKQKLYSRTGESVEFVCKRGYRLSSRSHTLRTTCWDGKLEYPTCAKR

## recombinant osteopontin (rOPN) (from UniProt P10451 17-300) (ligand)
  stoichiometry (OPN:Factor H): 1 mol/mol
